Earlier results as cited in patent US6896870B1, “Diagnostic probes and therapeutics targeting uPA and uPAR” (Angstrom Pharmaceuticals, Inc., priority 1999, dated 2005).
pIC50: −log10 of the molar value. Bridge positions count the residues as written; N and C are the ends. Ends that are not written are not given here.

Molecular target: uPAR (Homo sapiens, UniProt Q03405)
Conditions: read-out: IC50, prevention of uPA binding to uPAR

Sequence of uPAR (Q03405 23-305): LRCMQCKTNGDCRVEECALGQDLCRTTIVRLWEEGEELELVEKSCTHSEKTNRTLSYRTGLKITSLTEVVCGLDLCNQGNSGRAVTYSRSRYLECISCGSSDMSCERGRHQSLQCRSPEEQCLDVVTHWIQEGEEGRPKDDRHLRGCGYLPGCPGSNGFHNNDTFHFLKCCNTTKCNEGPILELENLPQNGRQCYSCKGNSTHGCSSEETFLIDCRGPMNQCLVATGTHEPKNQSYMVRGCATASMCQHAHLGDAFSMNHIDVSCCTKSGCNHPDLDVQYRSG

| pIC50 | Substance |
| --- | --- |
| 7.00 | [Ala^19]uPA(12-32) [[Ala^19]uPA(12-32) open chain form] (DCLNGGTAVSNKYFSNIHWCN; UniProt P00749 32-52, looked up, variant C19A) [uPA GFD peptide with two cysteines, the third cysteine replaced by Ala] |
| 7.40 | [Ala^19]uPA(12-32) [[Ala^19]uPA(12-32) oxidized cyclic form] (DCLNGGTAVSNKYFSNIHWCN; disulfide 2-20 (inferred); UniProt P00749 32-52, looked up, variant C19A) [same peptide cyclised by intrachain disulfide bond] |
